The target of assay [1] is T1, murine GPC3-his protein (murine, UniProt Q8CFZ4 25-558, limits assumed).
T1 construct: Bought protein; also called mouse GPC3 protein; murine GPC3 protein; not shown: His tag
Nature of the assay: ELISA, murine GPC3-his coated; antibody 13.33 nM.

Assay [2] deals with T2, monkey GPC3-His protein (monkey).
T2 construct: Bought protein; also called monkey GPC3 protein
Nature of the assay: ELISA, monkey GPC3-His coated; antibody 0.11 nM.
Experimental: (§1) The specific method is described as follows: The antigen protein was diluted with PBS to a final concentration of 1 μg/mL, and the diluent was added to a 96-well ELISA plate at 50 μL/well. The plate was sealed with a plastic film and incubated at 4° C. overnight, washed twice with PBS the next day, and a blocking solution [PBS+2% (w/w) BSA] was added for blocking at room temperature for 2 h. […] After incubation at 37° C. for 2 h, the plate was washed 3 times with PBS. A horseradish peroxidase (HRP)-labeled secondary antibody (purchased from Merck, Cat. No. AP113P) was added for incubation at 37° C. for 1 h, and the plate was washed 5 times with PBS. A TMB substrate was added at 50 μL/well for incubation at room temperature for 10 min, then a stop solution (1.0M HCl) was added at 50 μL/well.

In assay [3] the target is T1, murine GPC3-his protein. Nature of the assay: ELISA, murine GPC3-his coated; antibody 0.004 nM. Background: In an ELISA, binding on a coated surface is turned into a signal by an enzyme label.
Experimental: as §1
Assay [4] has as its target T2, monkey GPC3-His protein. Nature of the assay: ELISA, monkey GPC3-His coated; antibody 0.02 nM.
Experimental: as §1
Assay [5] concerns the target T1, murine GPC3-his protein. Nature of the assay: ELISA, murine GPC3-his coated; antibody 2.67 nM.
Experimental: as §1
Assay [6] addresses T2, monkey GPC3-His protein. Nature of the assay: ELISA, monkey GPC3-His coated; antibody 0.0008 nM.
Experimental: as §1
The target in assay [7] is T2, monkey GPC3-His protein. Nature of the assay: ELISA, monkey GPC3-His coated; antibody 2.67 nM.
Experimental: as §1
Assay [8] concerns the target T2, monkey GPC3-His protein. Nature of the assay: ELISA, monkey GPC3-His coated; antibody 13.33 nM.
Experimental: as §1
Assay [9] addresses T1, murine GPC3-his protein. Nature of the assay: ELISA, murine GPC3-his coated; antibody 0.53 nM.
Experimental: as §1
In assay [10] the target is T2, monkey GPC3-His protein. Nature of the assay: ELISA, monkey GPC3-His coated; antibody 0.53 nM.
Experimental: as §1
Assay [11] deals with T2, monkey GPC3-His protein. Nature of the assay: ELISA, monkey GPC3-His coated; antibody 66.66 nM.
Experimental: as §1
The target in assay [12] is T1, murine GPC3-his protein. Nature of the assay: ELISA, murine GPC3-his coated; antibody 0.11 nM.
Experimental: as §1
Assay [13] has as its target T1, murine GPC3-his protein. Nature of the assay: ELISA, murine GPC3-his coated; antibody 0.02 nM.
Experimental: as §1
For assay [14], the target named is T2, monkey GPC3-His protein. Nature of the assay: ELISA, monkey GPC3-His coated; antibody 0.004 nM.
Experimental: as §1
Assay [15] has as its target T1, murine GPC3-his protein. Nature of the assay: ELISA, murine GPC3-his coated; antibody 66.66 nM.
Experimental: as §1
Assay [16] has as its target T1, murine GPC3-his protein. Nature of the assay: ELISA, murine GPC3-his coated; antibody 0.0008 nM.
Experimental: as §1

T1 sequence (Q8CFZ4 25-558 limits assumed): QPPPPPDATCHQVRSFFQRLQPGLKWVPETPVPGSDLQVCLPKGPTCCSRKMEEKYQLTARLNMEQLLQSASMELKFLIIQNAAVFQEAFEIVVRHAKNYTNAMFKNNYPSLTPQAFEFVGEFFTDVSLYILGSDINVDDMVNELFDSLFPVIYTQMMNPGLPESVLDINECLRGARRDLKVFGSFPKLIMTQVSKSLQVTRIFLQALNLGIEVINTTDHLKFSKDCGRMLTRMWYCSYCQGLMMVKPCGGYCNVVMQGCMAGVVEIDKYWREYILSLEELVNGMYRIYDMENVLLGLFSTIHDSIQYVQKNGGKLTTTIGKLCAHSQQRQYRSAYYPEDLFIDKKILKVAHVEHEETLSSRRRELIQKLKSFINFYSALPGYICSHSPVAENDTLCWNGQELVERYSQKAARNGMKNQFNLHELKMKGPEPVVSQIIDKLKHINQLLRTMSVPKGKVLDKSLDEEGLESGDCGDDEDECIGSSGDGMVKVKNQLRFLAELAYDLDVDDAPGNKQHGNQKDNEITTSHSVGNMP

B1: hAb001H1L1 (antibody, human IgG1, V domains shown)
VH: EVQLVESGGGLVQPGGSLRLSCAASGFSFNTNAMNWVRQAPGKGLEWVGRIRSKSNNYATYYADSVKDRFTISRDDSKNSLYLQMNSLKTEDTAVYYCVRDGYYVLFAYWGQGTLVTVSS
VL: DIVMTQTPLSLPVTPGEPASISCRFSQSIVNSNGNTYLEWFLQKPGQSPQLLIYKVSNRFSGVPDRFSGSGSGTDFTLKISRVEAEDVGVYYCFQGSHVPFTFGQGTKLEIK
notes: Humanized F2.169.2, H1+L1
With B1, the OD450 nm came out at 2.82 in assay [1]; 1.96 in assay [2]; 0.48 in assay [3]; 1.08 in [4]; 2.69 in [5]; 0.198 in [6]. The OD450 nm in [7] amounted to 2.54; in [8], 2.55; in [9], 2.8; in assay [10], 2.46; in [11] it was 2.55; in assay [12] it was 2.31. The OD450 nm in [13] is 1.32; in assay [14] it was 0.373; in assay [15], 2.64; in [16], 0.239.

B2: hAb001H1L1a (antibody, human IgG1, V domains shown)
VH: EVQLVESGGGLVQPGGSLRLSCAASGFSFNTNAMNWVRQAPGKGLEWVGRIRSKSNNYATYYADSVKDRFTISRDDSKNSLYLQMNSLKTEDTAVYYCVRDGYYVLFAYWGQGTLVTVSS
VL: DIVMTQTPLSLPVTPGEPASISCRFSQSIVNSDGNTYLEWFLQKPGQSPQLLIYKVSNRFSGVPDRFSGSGSGTDFTLKISRVEAEDVGVYYCFQGSHVPFTFGQGTKLEIK
notes: Humanized F2.169.2, H1+L1a
B2: the OD450 nm in assay [1] was 2.57; in assay [2], 1.23; in assay [3], 0.356; in assay [4], 0.39; in assay [5], 2.49; in [6] it was 0.068. Besides, the OD450 nm in assay [7] was found to be 2.27; in [8] it was 2.37; in assay [9] it was 2.37; in assay [10], 2.08; in assay [11] it was 2.16; in assay [12] it was 1.66. Moreover, the OD450 nm was 0.657 in [13], 0.211 in [14], 2.58 in assay [15] and 0.117 in assay [16].

B3: hAb001H2L1 (antibody, human IgG1, V domains shown)
VH: EVQLVESGGGLVQPGGSLRLSCAASGFSFNTNAMNWVRQAPGKGLEWVGRIRSKSNNYATYYADSVKDRFTISRDDSKSSLYLQMNSLKTEDTAVYYCVRDGYYVLFAYWGQGTLVTVSS
VL: DIVMTQTPLSLPVTPGEPASISCRFSQSIVNSNGNTYLEWFLQKPGQSPQLLIYKVSNRFSGVPDRFSGSGSGTDFTLKISRVEAEDVGVYYCFQGSHVPFTFGQGTKLEIK
notes: Humanized F2.169.2, H2+L1
Take B3: the OD450 nm came to 2.62 in assay [1]; 2.11 in [2]; 0.524 in [3]; 1.05 in [4]; 2.59 in [5]; 0.304 in assay [6]. In addition, the OD450 nm was 2.59 in assay [7]; 2.64 in [8]; 2.48 in [9]; 2.47 in assay [10]; 2.68 in assay [11]; 2.1 in assay [12]. Further, the OD450 nm in assay [13] amounted to 1.27; in assay [14], 0.4; in assay [15] it was 2.62; in assay [16], 0.277.

B4: hAb001H1aL1a (antibody, human IgG1, V domains shown)
VH: EVQLVESGGGLVQPGGSLRLSCAASGFSFNTNAMNWVRQAPGKGLEWVGRIRSKSNNYATYYADSVKGRFTISRDDSKNSLYLQMNSLKTEDTAVYYCVRDGYYVLFAYWGQGTLVTVSS
VL: DIVMTQTPLSLPVTPGEPASISCRFSQSIVNSDGNTYLEWFLQKPGQSPQLLIYKVSNRFSGVPDRFSGSGSGTDFTLKISRVEAEDVGVYYCFQGSHVPFTFGQGTKLEIK
notes: Humanized F2.169.2, H1a+L1a
Consider B4, for which the OD450 nm in assay [1] is 2.44; in assay [2] it was 1.44; in assay [3] it was 0.206; in assay [4] it was 0.437; in [5], 2.49; in [6], 0.073. The OD450 nm in [7] was determined as 2.44; in assay [8], 2.42; in [9] it was 2.29; in assay [10], 2.19; in [11], 2.34; in assay [12], 1.49. Moreover, the OD450 nm was 0.67 in assay [13], 0.132 in assay [14], 2.45 in assay [15] and 0.092 in assay [16].

B5: hAb001H1aL1 (antibody, human IgG1, V domains shown)
VH: EVQLVESGGGLVQPGGSLRLSCAASGFSFNTNAMNWVRQAPGKGLEWVGRIRSKSNNYATYYADSVKGRFTISRDDSKNSLYLQMNSLKTEDTAVYYCVRDGYYVLFAYWGQGTLVTVSS
VL: DIVMTQTPLSLPVTPGEPASISCRFSQSIVNSNGNTYLEWFLQKPGQSPQLLIYKVSNRFSGVPDRFSGSGSGTDFTLKISRVEAEDVGVYYCFQGSHVPFTFGQGTKLEIK
notes: Humanized F2.169.2, H1a+L1
B5: the OD450 nm turned out to be 2.63 in assay [1]; 2 in assay [2]; 0.44 in [3]; 1.03 in assay [4]; 2.52 in assay [5]; 0.201 in assay [6]. In addition, the OD450 nm in assay [7] came out at 2.57; in assay [8], 2.52; in assay [9] it was 2.45; in [10] it was 2.36; in assay [11], 2.52; in assay [12], 1.95. For the same molecule, the OD450 nm in [13] was determined as 1.15; in assay [14], 0.379; in assay [15], 2.68; in assay [16], 0.255.

B6: hAb001H1aL1b (antibody, human IgG1, V domains shown)
VH: EVQLVESGGGLVQPGGSLRLSCAASGFSFNTNAMNWVRQAPGKGLEWVGRIRSKSNNYATYYADSVKGRFTISRDDSKNSLYLQMNSLKTEDTAVYYCVRDGYYVLFAYWGQGTLVTVSS
VL: DIVMTQTPLSLPVTPGEPASISCRFSQSIVNSNANTYLEWFLQKPGQSPQLLIYKVSNRFSGVPDRFSGSGSGTDFTLKISRVEAEDVGVYYCFQGSHVPFTFGQGTKLEIK
notes: Humanized F2.169.2, H1a+L1b
As for B6, the OD450 nm was 2.73 in assay [1]; 1.99 in [2]; 0.346 in assay [3]; 1.02 in [4]; 2.68 in assay [5]; 0.144 in assay [6]. Further, the OD450 nm in [7] was 2.39; in assay [8] it was 2.54; in assay [9], 2.52; in assay [10], 2.39; in assay [11] it was 2.59; in assay [12], 2.05. Moreover, the OD450 nm came to 1.15 in [13], 0.347 in [14], 2.76 in assay [15] and 0.185 in assay [16].

B7: hAb001H2L1a (antibody, human IgG1, V domains shown)
VH: EVQLVESGGGLVQPGGSLRLSCAASGFSFNTNAMNWVRQAPGKGLEWVGRIRSKSNNYATYYADSVKDRFTISRDDSKSSLYLQMNSLKTEDTAVYYCVRDGYYVLFAYWGQGTLVTVSS
VL: DIVMTQTPLSLPVTPGEPASISCRFSQSIVNSDGNTYLEWFLQKPGQSPQLLIYKVSNRFSGVPDRFSGSGSGTDFTLKISRVEAEDVGVYYCFQGSHVPFTFGQGTKLEIK
notes: Humanized F2.169.2, H2+L1a
For B7, the OD450 nm was determined as 2.41 in [1]; 1.13 in assay [2]; 0.191 in assay [3]; 0.34 in [4]; 2.35 in assay [5]; 0.063 in assay [6]. For the same molecule, the OD450 nm in assay [7] stood at 2.25; in assay [8] it was 2.34; in [9] it was 2.19; in assay [10], 2.02; in [11] it was 2.22; in assay [12], 1.59. In addition, the OD450 nm worked out at 0.664 in assay [13], 0.094 in assay [14], 2.48 in assay [15] and 0.094 in assay [16].

(Values after US20260116991A1 (HAINAN SIMCERE ZAIMING PHARMACEUTICAL, published 2026).)
